Experimental data: US20110027284A1 (Novartis, published 2011)
Blank lines part the entries; values can stand above or below the binder they belong to.

Target: T1, recombinant human NiG (human, UniProt Q9NQC3 186-1004)
T1 construct: Recombinant fragment, amine-coupled to a CM5 chip; also called hNiG; human NiG-fragment of NogoA
T1 sequence: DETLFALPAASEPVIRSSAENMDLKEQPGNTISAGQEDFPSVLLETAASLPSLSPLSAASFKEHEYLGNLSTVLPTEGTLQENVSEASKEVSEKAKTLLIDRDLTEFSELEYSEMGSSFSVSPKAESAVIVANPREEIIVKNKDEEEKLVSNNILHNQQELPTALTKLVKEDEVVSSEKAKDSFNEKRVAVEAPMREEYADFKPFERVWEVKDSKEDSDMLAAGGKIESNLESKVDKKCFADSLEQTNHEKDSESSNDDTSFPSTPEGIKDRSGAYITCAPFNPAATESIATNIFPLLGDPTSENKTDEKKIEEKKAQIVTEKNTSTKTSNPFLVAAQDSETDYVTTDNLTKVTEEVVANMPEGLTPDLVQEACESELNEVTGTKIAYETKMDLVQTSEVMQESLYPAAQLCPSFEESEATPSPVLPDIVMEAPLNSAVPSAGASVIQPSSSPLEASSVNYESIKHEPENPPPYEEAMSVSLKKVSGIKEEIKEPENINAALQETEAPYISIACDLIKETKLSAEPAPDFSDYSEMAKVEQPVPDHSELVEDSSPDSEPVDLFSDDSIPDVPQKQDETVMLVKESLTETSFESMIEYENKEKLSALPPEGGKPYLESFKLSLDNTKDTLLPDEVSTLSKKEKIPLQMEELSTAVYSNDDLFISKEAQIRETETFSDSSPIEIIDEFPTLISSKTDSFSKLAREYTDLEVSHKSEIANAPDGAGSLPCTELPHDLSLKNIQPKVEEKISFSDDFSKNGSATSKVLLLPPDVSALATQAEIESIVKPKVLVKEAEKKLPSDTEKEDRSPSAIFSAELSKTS
Assay: SPR (BIAcore), recombinant human NiG immobilised on a CM5 chip
Description: The affinity of the mouse 6A3-IgG1 mAb, 6A3-IgG4 mAb, and of the 6A3 Fab were measured by surface plasmon resonance (SPR) using a BIAcore 2000 optical biosensor (Biacore, Uppsala, Sweden) according to the manufacture's instructions. Recombinant human NIG was covalently immobilized on a flow cell of a CM5 sensor chip using amine-coupling chemistry. Briefly; the carboxymethlyladed dextran matrix was activated by injecting 35 μl of a solution containing 0.025M NHS and 0.1M EDC. […] The deactivation of the remaining NHS-ester group was performed by injection of 35 μl of 1M ethanolamine hydrochloride (pH 8.5). The surface of the sensor chip was regenerated by injecting 5 μl 0.1M HCl. […] After each injection, the sensor chip surface was regenerated with the injection of 10 μl 0.1M HCl without loss of binding activity on the surface. The kinetic constants, ka and kd and the affinity constants KA and KD were evaluated using the BIAevaluations 3.0 software supplied by the manufacturer.
Affinity measurement in BIAcore: The kinetic and the affinity binding constants of the mouse 6A3-IgG1 mAb, 6A3-IgG4 mAb, and of the 6A3 derived monovalent Fab fragment to recombinant human NogoA were measured in real time using surface plasmon resonance (SPR) technology (Biacore). […]

- Kd: 0.14 nM
B1: 6A3-IgG4 mAb (antibody, V domains shown)
VH: EVQLVESGGGLVQPGGSLRLSCAASGFTFSNYWMSWVRQAPGKGLEWVATIKQDGSQKNYVDSVKGRFTISRDNAKNSLYLRLNSLRAEDTAVYYCATELFDLWGRGSLVTVSS
VL: EIVLTQSPATLSLSPGERATLSCRASQSVSSYLAWYQQKPGQAPRLLIYDASNRATGIPARFSGSGSGTDFTLTISSLEPEDFAVYYCQQRSNWPITFGQGTKLEIKR
notes: Recombinant human IgG4/kappa made in SP2/0 cells; also called 6A3-Ig4; 6A3-Ab

- Kd: 1.1 nM
B2: 6A3 Fab monovalent fragment with his-tag (Fab, V domains shown, not shown: a dimerising Fc or GST; small tags and cut ends)
VH: B1 VH
VL: EIVLTQSPATLSLSPGERATLSCRASQSVSSYLAWYQQKPGQAPRLLIYDASNRATGIPARFSGSGSGTDFTLTISSLEPEDFAVYYCQQRSNWPITFGQGTRLEIK
modifications: A his-tag is present, but its chain and position are not stated, so it is left out.
notes: Made in E. coli; also called 6A3 derived monovalent Fab fragment; copies: 1 + 1
